The text below walks through data of PMC4204924.

The target of this data set is thrombin (UniProt P00734;P00734 328-363;364-622). Put plainly: competition.

B1: thrombin aptamer (TA) (structured_DNA)
DNA: GGTTGGTGTGGTTGGTTT
With B1, the binding result is given as “binds”.
